Patent US20070253950A1

Columns and labels:
[1] = biological target: human RAGE-strep tag fusion protein (human) (UniProt Q15109); assay: BIACORE capture assay: hRAGE-SA over antibody captured on anti-human Fc; 1:1 Langmuir global fit; average of FC2-FC4
[2] = biological target: human RAGE-strep tag fusion protein (human) (UniProt Q15109); assay: BIACORE capture assay: hRAGE-SA over antibody captured on anti-human Fc; steady state affinity; FC3
[3] = biological target: human RAGE-strep tag fusion protein (human) (UniProt Q15109); assay: BIACORE capture assay: hRAGE-SA over antibody captured on anti-human Fc; steady state affinity; FC4
[4] = biological target: human RAGE-strep tag fusion protein (human) (UniProt Q15109); assay: BIACORE capture assay: hRAGE-SA over antibody captured on anti-human Fc; 1:1 Langmuir global fit; FC4
[5] = biological target: human RAGE-strep tag fusion protein (human) (UniProt Q15109); assay: BIACORE capture assay: hRAGE-SA over antibody captured on anti-human Fc; 1:1 Langmuir global fit; FC2
[6] = biological target: murine RAGE-strep tag fusion protein (murine) (UniProt Q62151); assay: BIACORE capture assay: mRAGE-SA (SA-Mu RAGE) over antibody captured on anti-human Fc; 1:1 Langmuir global fit; FC2
[7] = biological target: human RAGE-strep tag fusion protein (human) (UniProt Q15109); assay: BIACORE capture assay: hRAGE-SA over antibody captured on anti-human Fc; steady state affinity; FC2
[8] = biological target: human RAGE-strep tag fusion protein (human) (UniProt Q15109); assay: BIACORE capture assay: hRAGE-SA over antibody captured on anti-human Fc; 1:1 Langmuir global fit; FC3
[9] = biological target: human RAGE-strep tag fusion protein (human) (UniProt Q15109); assay: BIACORE capture assay: hRAGE-SA over antibody captured on anti-human Fc; steady state affinity; average of FC2-FC4
[10] = biological target: murine RAGE-strep tag fusion protein (murine) (UniProt Q62151); assay: BIACORE capture assay: mRAGE-SA (SA-Mu RAGE) over antibody captured on anti-human Fc; 1:1 Langmuir global fit; FC4
[11] = biological target: murine RAGE-strep tag fusion protein (murine) (UniProt Q62151); assay: BIACORE capture assay: mRAGE-SA (SA-Mu RAGE) over antibody captured on anti-human Fc; 1:1 Langmuir global fit; average of FC2-FC4
[12] = biological target: murine RAGE-strep tag fusion protein (murine) (UniProt Q62151); assay: BIACORE capture assay: mRAGE-SA (SA-Mu RAGE) over antibody captured on anti-human Fc; 1:1 Langmuir global fit; FC3

Chain of human RAGE-strep tag fusion protein (human) (Q15109 other isoform, or with tags, fused parts or gaps): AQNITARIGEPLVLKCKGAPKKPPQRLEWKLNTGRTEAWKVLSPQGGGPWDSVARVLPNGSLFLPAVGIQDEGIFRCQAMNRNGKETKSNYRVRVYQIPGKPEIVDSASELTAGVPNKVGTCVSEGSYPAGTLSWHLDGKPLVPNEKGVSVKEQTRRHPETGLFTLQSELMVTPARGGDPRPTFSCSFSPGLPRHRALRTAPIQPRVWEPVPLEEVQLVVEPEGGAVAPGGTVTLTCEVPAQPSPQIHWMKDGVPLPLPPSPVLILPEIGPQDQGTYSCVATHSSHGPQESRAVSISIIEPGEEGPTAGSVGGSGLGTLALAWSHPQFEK
Chain of murine RAGE-strep tag fusion protein (murine) (Q62151 other isoform, or with tags, fused parts or gaps): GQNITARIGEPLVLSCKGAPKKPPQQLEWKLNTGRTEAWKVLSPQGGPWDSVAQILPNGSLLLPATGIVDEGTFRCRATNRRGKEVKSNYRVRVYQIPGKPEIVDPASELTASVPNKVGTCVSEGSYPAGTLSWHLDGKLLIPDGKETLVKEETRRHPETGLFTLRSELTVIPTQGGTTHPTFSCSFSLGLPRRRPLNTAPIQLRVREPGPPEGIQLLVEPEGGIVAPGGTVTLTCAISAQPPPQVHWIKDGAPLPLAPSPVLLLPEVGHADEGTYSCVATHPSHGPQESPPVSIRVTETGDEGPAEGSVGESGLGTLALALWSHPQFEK

Binder	Kd [1] [nM]	koff [1] [s⁻¹]	kon [1] [M⁻¹ s⁻¹]	Kd [2] [nM]	Kd [3] [nM]	Kd [4] [nM]	koff [4] [s⁻¹]	kon [4] [M⁻¹ s⁻¹]	Kd [5] [nM]	koff [5] [s⁻¹]	kon [5] [M⁻¹ s⁻¹]	Kd [6] [nM]	koff [6] [s⁻¹]	kon [6] [M⁻¹ s⁻¹]	Kd [7] [nM]	Kd [8] [nM]	koff [8] [s⁻¹]	kon [8] [M⁻¹ s⁻¹]	Kd [9] [nM]	Kd [10] [nM]	other results
XT-M4-V10 (antibody, from a related filing, V domains shown) VH: EVQLVESGGGLVQPGGSLRLSCAASGFTFNNYWMTWVRQAPGKGLEWVASIDNSGDNTYYPDSVKDRFTISRDNAKNSLYLQMNSLRAEDTAVYYCARGGDITTGFDYWGQGTLVTVSS VL: DIQMTQSPSSLSASVGDRVTITCRASQDVGIYVNWFQQKPGKAPKRLIYRATNLADGVPSRFSGSGSGTDFTLTISSLQPEDFATYYCLEFDEHPLTFGGGTKVEIK	23.4	0.0457	2.3e+06	24	26	20.3	0.0704	3.47e+06	31.8	0.00972	306000	3	0.0078	2.6e+06	25	18.2	0.0569	3.13e+06	25	3	koff [10]: 0.0078 s⁻¹; kon [10]: 2.6e+06 M⁻¹ s⁻¹; Kd [11]: 3 nM; koff [11]: 0.0077 s⁻¹; kon [11]: 2.6e+06 M⁻¹ s⁻¹; Kd [12]: 2.9 nM; koff [12]: 0.0076 s⁻¹; kon [12]: 2.6e+06 M⁻¹ s⁻¹
XT-M4-V11 (antibody, from a related filing, V domains shown) VH: EVQLVESGGGLVQPGGSLRLSCAASGFTFNNYWMTWVRQAPGKGLEWVASIDNSGDNTYYPDSVKDRFTISRDNAKNSLYLQMNSLRAEDTAVYYCARGGDITTGFDYWGQGTLVTVSS VL: DIQMTQSPSSLSASVGDRVTITCRASQDVGIYVNWFQQKPGKAPRRLIYRATNLADGVPSRFSGSRSGTDFTLTISSLQPEDFATYYCLEFDEHPLTFGGGTKVEIK	12.5	0.0374	3.01e+06	15	17	13	0.041	3.2e+06	13	0.033	2.5e+06	2	0.0043	2.2e+06	16	12	0.039	3.4e+06	16	2	koff [10]: 0.0041 s⁻¹; kon [10]: 2e+06 M⁻¹ s⁻¹; Kd [11]: 2 nM; koff [11]: 0.0042 s⁻¹; kon [11]: 2.1e+06 M⁻¹ s⁻¹; Kd [12]: 2 nM; koff [12]: 0.0042 s⁻¹; kon [12]: 2.1e+06 M⁻¹ s⁻¹
XT-M4-V14 (antibody, from a related filing, V domains shown) VH: EVQLVESGGGLVQPGGSLRLSCAASGFTFNNYWMTWVRQAPGKGLEWVASIDNSGDNTYYPDSVKDRFTISRDNAKNSLYLQMNSLRAEDTAVYYCARGGDITTGFDYWGQGTLVTVSS VL: DIQMTQSPSSLSASVGDRVTITCRASQDVGIYVNWFQQKPGKAPKRLIYRATNLADGVPSRFSGSRSGTDFTLTISSLQPEDFATYYCLEFDEHPLTFGGGTKVEIK	12.9	0.0497	3.88e+06	15	16	13.2	0.0661	5.02e+06	13.8	0.0366	2.66e+06	2	0.0043	2.2e+06	16	11.7	0.0464	3.96e+06	16	2	koff [10]: 0.0041 s⁻¹; kon [10]: 2.1e+06 M⁻¹ s⁻¹; Kd [11]: 2 nM; koff [11]: 0.0042 s⁻¹; kon [11]: 2.1e+06 M⁻¹ s⁻¹; Kd [12]: 1.9 nM; koff [12]: 0.004 s⁻¹; kon [12]: 2.1e+06 M⁻¹ s⁻¹
